Results on two proteins are retold here after patent publication US20060242739A1, “Plant nucleotide-sugar pyrophosphatase/phosphodiesterase (nppase), method of obtaining same and use of same in the production of assay devices and in the production of transgenic plants” (Universidad Publica De Navarra, priority 2002, published 2006).

Test in all cases: purified protein, by the assay type
Substrate in data set [1]: Cc1cn([C@H]2C[C@H](O)[C@@H](COP(=O)(O)OP(=O)(O)O[C@H]3O[C@H](CO)[C@@H](O)[C@H](O)[C@H]3O)O2)c(=O)[nH]c1=O
The conditions noted are these: other: substrate of NPPase from rice leaves; pH 7.0; 37.0 °C.

Substrate in data set [2]: Nc1ccn([C@@H]2O[C@H](COP(=O)(O)OP(=O)(O)O[C@H]3O[C@H](CO)[C@@H](O)[C@H](O)[C@H]3O)[C@@H](O)[C@H]2O)c(=O)n1
The conditions noted are these: pH 7.0.

Substrate in data set [3]: Nc1nc2c(ncn2[C@@H]2O[C@H](COP(=O)(O)OP(=O)(O)O[C@H]3O[C@H](CO)[C@@H](O)[C@H](O)[C@@H]3O)[C@@H](O)[C@H]2O)c(=O)[nH]1
The conditions noted are these: pH 7.0.

Substrate in data set [4]: Nc1nc2c(ncn2[C@@H]2O[C@H](COP(=O)(O)OP(=O)(O)O[C@H]3O[C@H](CO)[C@@H](O)[C@H](O)[C@H]3O)[C@@H](O)[C@H]2O)c(=O)[nH]1
To be noted: other: substrate of NPPase from rice leaves; pH 7.0; 37.0 °C.

Substrate in data set [5]: Nc1ncnc2c1ncn2[C@@H]1O[C@H](COP(=O)(O)OP(=O)(O)O)[C@@H](O)[C@H]1O
The conditions noted are these: pH 7.0.

Substrate in data set [6]: Nc1ncnc2c1ncn2[C@@H]1O[C@H](COP(=O)(O)OP(=O)(O)OP(=O)(O)O)[C@@H](O)[C@H]1O
To be noted: pH 7.0.

Substrate in data set [7]: Nc1ncnc2c1ncn2[C@@H]1O[C@H](COP(=O)(O)OP(=O)(O)O[C@H]2O[C@H](CO)[C@@H](O)[C@H](O)[C@H]2O)[C@@H](O)[C@H]1O
To be noted: pH 7.0.

Substrate in data set [8]: Nc1ncnc2c1ncn2[C@@H]1O[C@H](COP(=O)(O)OS(=O)(=O)O)[C@@H](O)[C@H]1O
The conditions noted are these: other: substrate of NPPase from rice leaves; pH 7.0; 37.0 °C.

Substrate in data set [9]: O=[N+]([O-])c1ccc(OP(=O)(O)Oc2ccc([N+](=O)[O-])cc2)cc1
To be noted: pH 7.0.

Substrate in data set [10]: NC(=O)c1ccc[n+]([C@@H]2O[C@H](COP(=O)(O)OP(=O)(O)OC[C@H]3O[C@@H](n4cnc5c(N)ncnc54)[C@H](O)[C@@H]3O)[C@@H](O)[C@H]2O)c1
To be noted: other: substrate of NPPase from barley leaves; pH 7.0.

Substrate in data set [11]: Nc1ncnc2c1ncn2[C@@H]1O[C@H](COP(=O)(O)OP(=O)(O)O[C@H]2O[C@H](CO)[C@@H](O)[C@H](O)[C@@H]2O)[C@@H](O)[C@H]1O
The conditions noted are these: other: substrate of NPPase from barley leaves; pH 7.0.

Substrate in data set [12]: O=[N+]([O-])c1ccc(OP(=O)(O)O)cc1
The conditions noted are these: other: substrate of NPPase from barley leaves; pH 7.0.

Where [13] appears, read: other: substrate of NPPase from rice leaves, 37.0 °C.
The mark [14] stands for this setting: other: substrate of NPPase from barley leaves.

B1: NPPase from rice leaves (Oryza sativa Japonica Group) (protein)
chain: SRPSSSLEGFQPLSKIAVHKATVDLHGSAFVSATPALLGDQGEDTEWVTVKYGWANPSADDWIAVFSPADFISGSCPNPSRYPDEPLLCTAPIKYQFANYSANYVYWGKGSIRFQLINQRYDFSFALFTGGLENPKLVAVSEAISFKNPKAPVYPRLAQGKSYDEMTVTWTSGYDISEAYPFVEWGMVVAGAAAPTRTAAGTLTFNRGSMCGEPARTVGWRDPGFIHTAFLRDLWPNKEYYYKIGHELSDGSIVWGKQYTFRAPPFPGQNSLQRIIVFGDMGKAERDGSNEFANYQPGSLNTTDRLVEDLDNYDIVFHIGDLPYANGYISQWDQFTAQVAPITAKKPYMIASGNHERDWPNTGGFFDVKDSGGECGVPAETMYYYPAENRANFWYKVDYGMFRFCIADSEHDWREGTDQYKFIEQCLSTVDRKHQPWLIFAAHRVLGYSSNWWYADQGSFEEPEGRESLQRLWQRHRVDVAFFGHVHNYERTCPMYQSQCVSGERRRYSGTMNGTIFVVAGGGGSHLSDYTSAIPKWSVFRDRDFGFVKLTAFNHSSLLFEYKKSSDGKVYDSFTVERDYRDVLSCVHDSCLPTTLAS
For B1, the Km came out at 600 µM in [1]; 920 µM in data set [2] (setting [13]); 800 µM in [3] (setting [13]); 930 µM in [4]; 4330 µM in data set [5] (setting [13]); 2060 µM in data set [6] (setting [13]). The Km in data set [7] (setting [13]) stood at 600 µM; in data set [8], 3040 µM; in data set [9] (setting [13]), 1300 µM. In addition, the Vmax in data set [1] came out at 106 µmol/min/mg; in data set [2] (setting [13]) it was 107 µmol/min/mg; in data set [3] (setting [13]), 129 µmol/min/mg; in [4] it was 119 µmol/min/mg; in data set [5] (setting [13]) it was 385 µmol/min/mg; in data set [6] (setting [13]), 356 µmol/min/mg. For the same protein, the Vmax in [7] (setting [13]) turned out to be 183 µmol/min/mg; in [9] (setting [13]), 191 µmol/min/mg. Moreover, the kcat/Km came to 206000 M⁻¹ s⁻¹ in data set [1]; 190000 M⁻¹ s⁻¹ in data set [3] (setting [13]); 148000 M⁻¹ s⁻¹ in data set [4]; 100000 M⁻¹ s⁻¹ in data set [5] (setting [13]); 203000 M⁻¹ s⁻¹ in [6] (setting [13]); 350000 M⁻¹ s⁻¹ in [7] (setting [13]). For the same protein, the specificity constant (kcat/Km) in data set [9] (setting [13]) came out at 171000 M⁻¹ s⁻¹.

B2: NPPase from barley leaves (Hordeum vulgare) (protein)
chain: SDGSVVWAKPYTFRAPPTPGQNSLQRIIVFGDMGKAERDGSNEFANYQPGSLNTTDRLIEDLDNYDIVFHIGDMPYANGYLSQWDQFTAQVAPISAKKPYMVASGNHERDWPNTGGFFDVKDSGGECGVPAETMYYYPAENRANFWYKVDYGMFRFCVGDSEHDWREGTPQYKFIEECLSTVDRKHQPWLIFTAHRVLGYSSNSWYADQGSFEEPEGRESLQKLWQRYRVDIAYFGHVHNYERTCPLYQSQCVNADKTHYSGTMNGTIFVVAGGGGSHLSSYTTAIPKWSIFRDHDYGFTKLTAFNHSSLLFEYMKSSDGKVYDSFTIHRDYRDVLSCVHDSCFPTTLAS
Consider B2, for which the Km in data set [10] was 2500 µM; in data set [2] (setting [14]) it was 2800 µM; in data set [3] (setting [14]), 400 µM; in [5] (setting [14]), 3500 µM; in data set [6] (setting [14]), 3500 µM; in [11], 400 µM. Also, the Km was 500 µM in data set [7] (setting [14]), 500 µM in [12] and 300 µM in data set [9] (setting [14]).
